For assay [1], the target named is Fluorescein-labeled variant of BtuF (BtuF_(fluo)) (Escherichia coli) (UniProt P37028). Briefly: fluorescence kinetics of nanobody displacement by Cbl; 10 nM BtuF_(fluo) equilibrated with 10 nM nanobody, then 1, 5 or 10 μM Cbl; slow phase of fluorescence decrease at 520 nm gives koff; kon calculated as koff/Ki; 50 mM Tris-HCl pH 7.5, 200 mM NaCl, 0.001% Tween 20, 23 °C.

Assay [2] has the same target. Briefly: other fluorescence titration; equilibrium competition in solution: 5 nM BtuF_(fluo), Cbl 0.3 nM to 10 μM at a constant nanobody concentration (5 μM Nb14; 1 μM Nb7, Nb15, Nb17; 100 nM Nb9, Nb10); 50 mM Tris-HCl pH 7.5, 200 mM NaCl, 0.001% Tween 20, 23 °C; Ki fitted with Dynafit with Kd of Cbl 8.1 nM as input.
Assay [3] has as its target T1, BtuF, periplasmic substrate-binding protein of the Escherichia coli vitamin B12 transporter BtuCD-F, tag-less (Escherichia coli (K12 sequence), UniProt P37028).
T1 construct: the assays name the protein tag-less; also called tag-less BtuF; tagless BtuF; source: prepared as described previously [6,18], purified; not shown: His-tag (3C cleavable), C-terminal, cleaved
Briefly: pull-down; His-tagged nanobodies immobilized on Ni-NTA, 1.5 molar excess of tagless BtuF, 1.5 hours at 4 °C; wash 50 mM Tris-HCl pH 7.5, 250 mM NaCl, 10% glycerol, 20 mM imidazole; elution 500 mM imidazole; SDS-PAGE; no Cbl. Particulars: both partners purified.

We go through six molecules from publication PMC5662663 (Scientific Reports, 2017).

B1: Nanobody Nb10 (VHH)
VHH: QLQLVESGGGLVQPGGSLRLSCAASGFTLDYYAIGWFRQAPGKEREGVSCISSSGGSTNYADSVKGRFTISRDNAKNTVYLQMNSLKPEDTAVYYCAADYAGRGFCAGLYDYWSQGTPVTVSS
The term koff denotes the rate constant with which the complex falls apart. The term kon denotes the second-order rate constant of association. A word on the Ki: it is the equilibrium dissociation constant of an inhibitor or competing ligand from its target. A low value points to higher affinity. Take B1: in assay [1], the off-rate (koff) was 0.0071 s⁻¹, the kon is 1.2e+06 M⁻¹ s⁻¹ and the occupancy of BtuF (fluo) with nanobody (10 nM each) was 53%. For the same molecule, in assay [2], the inhibitory constant (Ki) is 6 nM.

B2: Nanobody Nb17 (VHH)
VHH: QRQLVESGGGLVQAGGSLRLSCAASGRTFSSYVMGWFRQAPGKEREAVASISWSGGSTYYADSVKGRFTISRDNAKNTVYLQMNSLKPEDTAVYYCAADHRTYYTGTYSPDYWGKGTPVTVSS
notes: Alpaca nanobody selected by phage display against BtuF; source: E. coli WK6, periplasmic extract, purified (IMAC, PD10 desalting)
On to B2, for which, in assay [1], the koff is 0.0025 s⁻¹, the kon is 46000 M⁻¹ s⁻¹ and the occupancy of BtuF (fluo) with nanobody (10 nM each) was 14%. In assay [2], this molecule displayed a Ki of 54 nM. Moreover, in assay [3], the binding result was “binds”.

B3: Nanobody Nb14 (VHH)
VHH: QLQLVESGGGLVQPGGSLRLSCAASGFTFSSVAMSWVRQAPGKGLEWVSDINSVGSTYYADSVKGRFTISRDNAKNTVYLQMNSLKPEDTAVYYCVPLGERPEIHGGKGTPVTVSS
B3: the inhibition constant Ki in assay [2] worked out at 770 nM.

B4: Nanobody Nb15 (VHH)
VHH: QVQLVESGGGLVQPGGSLRLSCTASEATLDDYAIGWFRQAPGKEREGVSCIGSSGDVTHYADSVKGRFTISRDNAKNTGYLQLNNLRPEDTAVYYCAAAHRILGGCLVIHSSDYTSSSKGTRVTVSS
notes: as for B2
Consider B4, for which the Ki in assay [2] turned out to be 79 nM. The binding result in assay [3] is “binds”.

B5: Nanobody Nb7 (VHH)
VHH: QGQLVESGGGLVQPGGSLRLSCVASGFDFSNYTMSWVRQAPGKGLEWVSDISSGGGSTYYADSVKGRFTISRDNAKNTVYLQMNTLKPEDTAVYLCTELGVAPPGQGTRVTVSS
notes: as for B2
B5: in assay [1], the koff is 0.0019 s⁻¹, the kon was 79000 M⁻¹ s⁻¹ and the occupancy of BtuF (fluo) with nanobody (10 nM each) is 30%. In assay [2], this molecule yielded an inhibitory constant (Ki) of 24 nM. Besides, the binding result in assay [3] is on record as “binds”.

B6: Nanobody Nb9 (VHH)
VHH: QMQLVESGGGLVQPGGSLRLSCAAPESTLDDYAIGWFRQAPGKEREGVSCIGSSGDSTNYADSVKGRFTVSRDNAKNTVYLQMNDLRPEDTAVYYCAAAHRIFGGCLVIHSSGYVSWGQGTPVTVSS
notes: Alpaca nanobody selected by phage display against BtuF; additional disulfide bond between C72 (CDR2) and C128 (CDR3); source: E. coli WK6, periplasmic extract, purified (IMAC, PD10 desalting)
For the molecule B6, the binding result in assay [3] is reported as “binds”.
